Test results taken from publication PMC2396407.

Legend:
p53 [1] = biological target: T1, p53 (UniProt P04637 1-393); test: competition
TAp63γ [2] = biological target: T2, TAp63γ (UniProt Q9H3D4-5 40-487); test: competition
T2 sequence: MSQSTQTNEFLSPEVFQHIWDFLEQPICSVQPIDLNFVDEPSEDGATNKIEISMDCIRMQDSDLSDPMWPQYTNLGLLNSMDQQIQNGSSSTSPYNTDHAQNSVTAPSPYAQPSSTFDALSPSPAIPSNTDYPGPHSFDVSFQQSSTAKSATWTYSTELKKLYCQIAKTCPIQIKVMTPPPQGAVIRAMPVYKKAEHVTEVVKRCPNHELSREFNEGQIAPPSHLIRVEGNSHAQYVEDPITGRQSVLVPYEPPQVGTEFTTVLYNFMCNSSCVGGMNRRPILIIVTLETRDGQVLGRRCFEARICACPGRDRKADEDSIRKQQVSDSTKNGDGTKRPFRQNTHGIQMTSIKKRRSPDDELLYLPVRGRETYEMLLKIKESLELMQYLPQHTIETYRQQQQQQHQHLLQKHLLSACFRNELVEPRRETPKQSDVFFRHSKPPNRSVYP

p53 [3] = biological target: T1, p53; test: competition; remark: listed apart in the source
TAp63γ [4] = biological target: T2, TAp63γ; test: competition; remark: listed apart in the source
TAp63γ [5] = biological target: T2, TAp63γ; test: EMSA, supershift
p53 [6] = biological target: T1, p53; test: EMSA, supershift
p53 [7] = biological target: T1, p53; test: EMSA
TAp63γ [8] = biological target: T2, TAp63γ; test: EMSA

T1 sequence (P04637 whole entry): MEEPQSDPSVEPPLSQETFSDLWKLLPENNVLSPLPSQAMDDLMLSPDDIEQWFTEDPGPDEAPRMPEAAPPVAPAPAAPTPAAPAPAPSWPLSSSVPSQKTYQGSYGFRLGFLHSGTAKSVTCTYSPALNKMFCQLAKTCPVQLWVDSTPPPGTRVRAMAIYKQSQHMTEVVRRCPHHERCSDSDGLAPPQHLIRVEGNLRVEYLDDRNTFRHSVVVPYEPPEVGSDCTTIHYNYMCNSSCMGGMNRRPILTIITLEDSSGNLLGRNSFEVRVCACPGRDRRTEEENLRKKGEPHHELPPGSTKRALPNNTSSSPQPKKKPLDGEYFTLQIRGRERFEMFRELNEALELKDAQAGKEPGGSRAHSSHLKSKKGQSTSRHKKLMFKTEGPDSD

B1: S100A2 site 2 mut-1 (dsDNA)
DNA 1: GGGTGGGATTGGATTGAGGTGGATTTGGTTTCCTT
DNA 2: AAGGAAACCAAATCCACCTCAATCCAATCCCACCC
- binding result (p53 [1]): no binding
- binding result (TAp63γ [2]): no binding

B2: S100A2 site 2 mut-2 (dsDNA)
DNA 1: GGGTGGGATCATGTTGAGGCATGTTTGGTTTCCTT
DNA 2: AAGGAAACCAAACATGCCTCAACATGATCCCACCC
- binding result (p53 [3]): binds
- binding result (TAp63γ [4]): binds

B3: p21 (p21WAF1/CIP1 p53 site) (dsDNA)
DNA 1: GGCCATCAGGAACATGTCCCAACATGTTGAGCTCT
DNA 2: AGAGCTCAACATGTTGGGACATGTTCCTGATGGCC
- binding result (TAp63γ [5]): binds
- binding result (p53 [6]): binds

B4: mdm2 p53 site (dsDNA)
DNA 1: GGGCGGCCGCTGGTCAAGTTGGGACACGTCCGG
DNA 2: CCGGACGTGTCCCAACTTGACCAGCGGCCGCCC
- binding result (p53 [7]): binds
- binding result (TAp63γ [8]): binds
